± gives the uncertainty stated by the source.
Test: amyloid nucleation score (Sup35N fusion, yeast selection) (log enrichment); library NNK3; higher = more nucleation; inactive = no reads after selection
Outline: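 The nucleation score is the DiMSum log enrichment of output over input reads, centred on the mode score of non-aggregating sequences. Only sequences with 100 or more input reads were scored, using Illumina sequencing of input and output plasmid inserts. Psi-negative yeast expressing Sup35N fused to peptides of 20 random codons were induced 24 hours with 100 μM copper sulfate and grown 7 days at 30°C on medium lacking adenine and uracil.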
In the case of IFPFFVSL, the amyloid nucleation score is reported as “inactive”.
In the case of YGPSLQNSWDPFPRASSPVI, the amyloid nucleation score is reported as “inactive”.
With WAFGYFGCYFQFLVLQDSVG the amyloid nucleation score was 1.87 ± 0.1.
With PEPHLKSEKYNCSGDWPLPL the amyloid nucleation score was “inactive”.
With IGRMKRSIGRCDPVWWNWVQ the amyloid nucleation score was “inactive”.
In the case of QEYSGHATSGAHMRWAYSVE, the amyloid nucleation score is reported as “inactive”.
With TVDVIRYISPDLDKTSYEWK the amyloid nucleation score was “inactive”.
In the case of MHIFVLNLDLSRA, the amyloid nucleation score is reported as 2.61 ± 0.069.
In the case of VYIRQLRMPAFCLTSGRALD, the amyloid nucleation score is reported as “inactive”.
In the case of RCRKHALLFHRCILGYSVLP, the amyloid nucleation score is reported as “inactive”.
In the case of DMWKFTRLLFFCDSKRCSAD, the amyloid nucleation score is reported as “inactive”.
In the case of NTQNLNRVVCLGL, the amyloid nucleation score is reported as “inactive”.
With LLFQL the amyloid nucleation score was “inactive”.
For RSLWALSPENRPLGKVS, the amyloid nucleation score was “inactive”.
In the case of ANTGFLLSWNGFLLMCLELD, the amyloid nucleation score is reported as “inactive”.
In the case of YCVYQWLSYSVCLFNLMECT, the amyloid nucleation score is reported as “inactive”.
CKMLNYFLCT showed an amyloid nucleation score of 1.1 ± 0.13.
With FAGCTVGLTNYKRLWICVN the amyloid nucleation score was 0.092 ± 0.72.
Substance VEVRVYTFF has an amyloid nucleation score of 2.23 ± 0.074.
For SEVFFGSVPNDARDKLNTNP, the amyloid nucleation score was “inactive”.
Substance KLDTVYRPSMRACVCNREFV has an amyloid nucleation score of -0.515 ± 1.1.
In the case of MRLADLGMLGARTDQDRLPT, the amyloid nucleation score is reported as “inactive”.
In the case of EMLKVLVHS, the amyloid nucleation score is reported as “inactive”.
For YRWQLRKKALFFFGKFSVHY, the amyloid nucleation score was “inactive”.
EVGCV showed an amyloid nucleation score of 0.76 ± 0.14.
For SISTFYMLNMLKNMHLDGFG, the amyloid nucleation score was “inactive”.
With INKSWGVFP the amyloid nucleation score was 0.687 ± 0.18.
In the case of FRFTFLMRNML, the amyloid nucleation score is reported as “inactive”.
PMERGMCLMLGSLVG showed an amyloid nucleation score of 0.942 ± 0.093.
With FVEYSSVQYAACNLDRLFLF the amyloid nucleation score was “inactive”.
In the case of NRYLVVLRSCS, the amyloid nucleation score is reported as “inactive”.
For LNSKFMLASTLLAKW, the amyloid nucleation score was “inactive”.
HMRIGNESWVIGCQ gave an amyloid nucleation score of 0.132 ± 0.75.
GFYSLISQQQFVLNFNGYKM gave an amyloid nucleation score of 2.34 ± 0.086.
For AFYFNEMYRLVLMGTM, the amyloid nucleation score was “inactive”.
MYLIYGHGTIIICTESVSVH gave an amyloid nucleation score of 0.361 ± 0.15.
SFLSNCSFPDRSMKAYFIYY gave an amyloid nucleation score of 0.939 ± 0.11.
With KTIFFMKGLVMSDDICSDRR the amyloid nucleation score was “inactive”.
IFVILW showed an amyloid nucleation score of 0.101 ± 0.6.
With IVQLHDIVDS the amyloid nucleation score was -0.168 ± 0.9.
With TVLVAGIGCEWSMGESTAMW the amyloid nucleation score was “inactive”.
With ISRLLPPWNNRHIFSFVYLS the amyloid nucleation score was “inactive”.
NLFVNL gave an amyloid nucleation score of 1.13 ± 0.15.
For MIRWTWNRKHTII, the amyloid nucleation score was “inactive”.
In the case of VIRPGQYVIWFSRVILSFLF, the amyloid nucleation score is reported as “inactive”.
With QSRMLELS the amyloid nucleation score was “inactive”.
For NMSTAWRRGNPVCTDSKYRV, the amyloid nucleation score was “inactive”.
For DEYTSNVVSNFFEIRLWFFI, the amyloid nucleation score was “inactive”.
For LIFWRPIGDEHYLWPLPFYL, the amyloid nucleation score was “inactive”.
In the case of RFNFNFFRSRSHLSVFTQFG, the amyloid nucleation score is reported as “inactive”.
For VMLNNCRGYLANCDSCSW, the amyloid nucleation score was “inactive”.
In the case of TGHMTDIYYELSHGVEPKGL, the amyloid nucleation score is reported as “inactive”.
In the case of YCMVKL, the amyloid nucleation score is reported as “inactive”.
For SDRIDNFAWINFCK, the amyloid nucleation score was 0.831 ± 0.18.
For CEFTAPVICLISLCYVGRSR, the amyloid nucleation score was 1.09 ± 0.094.
With EFPASNLSMLGWN the amyloid nucleation score was “inactive”.
In the case of FWKWL, the amyloid nucleation score is reported as “inactive”.
For IPTSQAEFCCFSGAKHFQIV, the amyloid nucleation score was “inactive”.
With HMIGRCLVGIESYRW the amyloid nucleation score was “inactive”.
VYYACGMDVKNFWELRLWGD showed an amyloid nucleation score of 1.99 ± 0.063.
With GSVNLSVKSW the amyloid nucleation score was “inactive”.
In the case of WYYQVKMISVCSLIEGMWTS, the amyloid nucleation score is reported as “inactive”.
In the case of LVFLN, the amyloid nucleation score is reported as “inactive”.
For RPAIRSFFVMVSVKLR, the amyloid nucleation score was “inactive”.
For KDFGRLLLN, the amyloid nucleation score was “inactive”.
With GRNCFGGARTAVGIRNTSPL the amyloid nucleation score was “inactive”.
With QSASHRP the amyloid nucleation score was “inactive”.
Substance FLRKGYFNSTSFTDALGGNL has an amyloid nucleation score of -1.26 ± 1.8.
In the case of SKTIYWFPPYPYVQFGCHRR, the amyloid nucleation score is reported as “inactive”.
Work on FVCLLCPMYYVHSTMWMSAR yielded an amyloid nucleation score of 2.01 ± 0.057.
For RVGCVQYQFRRCRGWKSNKA, the amyloid nucleation score was “inactive”.
In the case of HPHTHVR, the amyloid nucleation score is reported as “inactive”.
In the case of NAFLIGTDILRFMRVLFKQL, the amyloid nucleation score is reported as “inactive”.
In the case of KLCTVSNRSVMPGIT, the amyloid nucleation score is reported as “inactive”.
With VFAAKGPTMYRSARVS the amyloid nucleation score was “inactive”.
In the case of LLFALDGFIAGWMCMWGDRF, the amyloid nucleation score is reported as “inactive”.
For GGTNVFGAWSHNQRILCQKG, the amyloid nucleation score was “inactive”.
With SILRVGKERRSGYSSGEEY the amyloid nucleation score was “inactive”.
For FNDLSAVFYLQGLKLDL, the amyloid nucleation score was “inactive”.
In the case of WDVTNLAGFLNDPVSLKLS, the amyloid nucleation score is reported as “inactive”.
In the case of IWQCRYLRMGQ, the amyloid nucleation score is reported as “inactive”.
For PEEDRFLTQSPMLRFIITHM, the amyloid nucleation score was “inactive”.
With RKYGTLCKGCVL the amyloid nucleation score was “inactive”.
For ARLAYMYMEDGKCSTHRGKF, the amyloid nucleation score was “inactive”.
For LNSYQDYSRGVLLKRKALLY, the amyloid nucleation score was “inactive”.
With DAGELNILI the amyloid nucleation score was “inactive”.
With VEGRMLSYLHVIYMYSGWRK the amyloid nucleation score was “inactive”.
For ESVSNSYVQTKWEYQLC, the amyloid nucleation score was “inactive”.
With HFLRRTDFYTANWA the amyloid nucleation score was “inactive”.
With SYDVKSSTLW the amyloid nucleation score was “inactive”.
GVHVVYCVRFSEGIVYTSGF gave an amyloid nucleation score of 0.906 ± 0.2.
QFCVQRFYGVEKKLLTLWGF showed an amyloid nucleation score of 0.088 ± 0.75.
Work on RMGHWCRVAGSKLLGVV yielded an amyloid nucleation score of -0.131 ± 1.2.
For EYPFFIKSQGR, the amyloid nucleation score was “inactive”.
For VMRIVATQRAGWTGTREPGM, the amyloid nucleation score was “inactive”.
In the case of IFRSHMQSLGK, the amyloid nucleation score is reported as “inactive”.
With LIGQFISYIKSVIGSDRKGC the amyloid nucleation score was “inactive”.
In the case of GTGGSVRPHCEFSLRSSYMV, the amyloid nucleation score is reported as “inactive”.
With LWEDFLMVKSVVMN the amyloid nucleation score was “inactive”.
With LHWSIDR the amyloid nucleation score was “inactive”.
In the case of DIIYTFHHAVNRLNKIFSV, the amyloid nucleation score is reported as “inactive”.
With WMVGVKRSW the amyloid nucleation score was “inactive”.
For GISSKFRSPNRGNCYYRDIL, the amyloid nucleation score was “inactive”.
Substance LNCVSQMRVDRDANYSCNFF has an amyloid nucleation score of -0.142 ± 0.78.
With MSCIFVSKKFLRLELGSSLY the amyloid nucleation score was “inactive”.
With ETYYFSVGFFY the amyloid nucleation score was “inactive”.
YCLKLLGGFC showed an amyloid nucleation score of 0.657 ± 0.27.
In the case of LMMLCLSVGMMKRSAYRLFT, the amyloid nucleation score is reported as “inactive”.
In the case of LKVPSVVNR, the amyloid nucleation score is reported as “inactive”.
With DSQLFKICGLVCTTYVALCF the amyloid nucleation score was -0.732 ± 0.59.
In the case of IFNWPSQTVLHIYKSAHVNM, the amyloid nucleation score is reported as 2.35 ± 0.066.
In the case of KGDCQWVVPYVIHSNHVRAG, the amyloid nucleation score is reported as “inactive”.
For LMVVWMLYGNNTCYDALMLC, the amyloid nucleation score was “inactive”.
In the case of FSVHRGLLFITQGSDVAEHV, the amyloid nucleation score is reported as “inactive”.
Work on HYYINNTWMFKVYNRLLKRR yielded an amyloid nucleation score of 2.51 ± 0.057.
In the case of NAYVEGRSWVLVIENKDFAV, the amyloid nucleation score is reported as “inactive”.
Work on SWWFCVWFQNI yielded an amyloid nucleation score of 0.888 ± 0.13.
In the case of FSCIKTRMVGYSLRLNQFVD, the amyloid nucleation score is reported as “inactive”.
For KYDCRGEMLFQ, the amyloid nucleation score was “inactive”.
For DPSNACPWGR, the amyloid nucleation score was “inactive”.
For TPVTGQQWNCFCTILHSE, the amyloid nucleation score was 2.52 ± 0.08.
For KFYLILVA, the amyloid nucleation score was “inactive”.
For RLCWLNVDHGLLVNPPWGYR, the amyloid nucleation score was “inactive”.
In the case of VQVLYVICLSSSMLYRLVVR, the amyloid nucleation score is reported as “inactive”.
In the case of YNWIC, the amyloid nucleation score is reported as “inactive”.
For VYKWECKDRKYGWRYCAETW, the amyloid nucleation score was “inactive”.
With RVEAPVMPKRRSIHQCSLKK the amyloid nucleation score was “inactive”.
With ARLPFCAISLTRYGWFSCRC the amyloid nucleation score was “inactive”.
For INFCIINNTMV, the amyloid nucleation score was 1.75 ± 0.071.
With RVMCRFIVRSLYAPDSHSLT the amyloid nucleation score was 1.54 ± 0.073.
Substance TANCLVCVTCSGLMRTT has an amyloid nucleation score of 2.82 ± 0.054.
With KQVNQSRLMISGGNCRGRAN the amyloid nucleation score was “inactive”.
In the case of FYHDMIWTILLDYTRRFHKL, the amyloid nucleation score is reported as “inactive”.
With HSVGWHFPLCFSTQMTLVRS the amyloid nucleation score was “inactive”.
For SSIVENGCNTERSPMIGCVS, the amyloid nucleation score was -0.576 ± 0.88.
With DVNGR the amyloid nucleation score was “inactive”.
For SGMVCVSLVG, the amyloid nucleation score was “inactive”.
For SDMVVKGERGYICILICRLR, the amyloid nucleation score was “inactive”.
For HKGALVWYFYCRANFADYLY, the amyloid nucleation score was “inactive”.
With LIFGVIPCQPR the amyloid nucleation score was “inactive”.
For PVDKRTSTAVDRFARAMNCQ, the amyloid nucleation score was “inactive”.
With MVYIKILHFVILMSMHFN the amyloid nucleation score was “inactive”.
With SLVGRSCLRY the amyloid nucleation score was “inactive”.
For AKCMSNYYERCVLNTERREL, the amyloid nucleation score was “inactive”.
For MTPMRAAMTLICHMPARRFS, the amyloid nucleation score was “inactive”.
For SICSEVGSSQLVVL, the amyloid nucleation score was “inactive”.
In the case of VRIRGWFAGHGNFWFSL, the amyloid nucleation score is reported as “inactive”.
With HFRYY the amyloid nucleation score was “inactive”.
In the case of VSGVECSCD, the amyloid nucleation score is reported as 0.762 ± 0.15.
With HVFYPALI the amyloid nucleation score was “inactive”.
Substance YWTANTDYTNVIGYKNTYVH has an amyloid nucleation score of -0.337 ± 0.33.
With YNVIT the amyloid nucleation score was “inactive”.
In the case of VTAMSMNVAQCPAYPR, the amyloid nucleation score is reported as “inactive”.
For HGLRALLRSLSLYLVLCFTV, the amyloid nucleation score was “inactive”.
With AQPVNMDKSWG the amyloid nucleation score was “inactive”.
For GFCLQSNLCIIGRSFWTFLI, the amyloid nucleation score was 0.629 ± 0.55.
For IFSRLGFVCLIMFTC, the amyloid nucleation score was “inactive”.
In the case of DYGMLCSLLSGDISNSEVGI, the amyloid nucleation score is reported as “inactive”.
In the case of FWKACTCI, the amyloid nucleation score is reported as “inactive”.
In the case of CMGYRFC, the amyloid nucleation score is reported as “inactive”.
For GPYNCFVH, the amyloid nucleation score was “inactive”.
YLHAEYRMCKLIFKMEEFRD showed an amyloid nucleation score of 0.276 ± 0.46.

Source: the supplement of paper PMC12042874
